Results reported in paper PMC5171221.
Where two headings read alike, the source gives them in different places.

Legend:
[1] = molecular target: T1, apododecin DtE (triple E variant) (Halobacterium salinarum, UniProt B0R5M0 1-68, E45A;del50-50;del51-51); experiment: QCM-D
T1 sequence: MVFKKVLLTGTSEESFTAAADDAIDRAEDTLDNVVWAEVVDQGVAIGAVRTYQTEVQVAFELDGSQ

[2] = molecular target: T1, apododecin DtE (triple E variant); experiment: QCM-D; remark: listed apart in the source

B1: flavin-dsDNA 100 bp surface tether (dsDNA)
DNA 1: GTCACGATGGCCCAGTAGTT
DNA 2: AACTACTGGGCCATCGTGAC
DNA 3: CGCCGCCGCCGACGACGCCATCGACCGCGCGGAGGACACCCTCGACAACGTGGTGTGGGCGTCACGATGGCCCAGTAGTT
DNA 4: GCCCACACCACGTTGTCGAGGGTGTCCTCCGCGCGGTCGATGGCGTCGTCGGCGGCGGCGAACTACTGGGCCATCGTGAC
modifications: strand 1 5' flavin (CofC4); strand 2 5' (dithiane)3, on gold
B1: binds [1].

B2: flavin-dsLNA 7 bp surface tether (XNA)
?: GGGCGAC
DNA: GTCGCCC
modifications: LNA; strand 1 5' flavin (CofC4); strand 2 5' 1,2-dithiane, on gold
B2: binds [2].
